Molecular target: RNA polymerase (RNAP), WT (E. coli, UniProt P0A7Z4;P0A8V2;P0A8T7;P0A800;P00579 1-329;1-1342;1-1407;2-91;1-613)
Test: EMSA; no C protein; on ice (closed complex); EMSA: on ice 10 min, 3.5% native PAGE at 4 C; binding buffer not stated (transcription buffer: 40 mM Tris-Cl pH 8.0, 5 mM Mg acetate, 0.1 mM EDTA, 0.1 mM DTT, 100 mM KCl, 100 ug/ml BSA)
Conditions: protein: recombinant, (Ni-NTA purified), chain copies: 2;1;1;1;1, label: 5' 32P
[1] = 5' overhangs 4 nt (EcoRI AATT / BamHI GATC)

B1: lys promoter 92mer (dsDNA)
DNA 1: AATTCATCCTGCCGGTTATTTCCTGTCACCATAATCCCGCACCTGCCACCTGATTTTTTAGACTGCCATCAGAGAATTTTTTCAGGGAAGCG
DNA 2: GATCCGCTTCCCTGAAAAAATTCTCTGATGGCAGTCTAAAAAATCAGGTGGCAGGTGCGGGATTATGGTGACAGGAAATAACCGGCAGGATG
[1]
  binding result: binds

B2: P promoter 92mer (dsDNA)
DNA 1: AATTCACAGGGACAGTTACAGTTAACTGCCATAACCCCGGACGGCGGCTTTTCACAGGTATCCTTTTCAGACAGTGGTACAGCCACGCCCCG
DNA 2: GATCCGGGGCGTGGCTGTACCACTGTCTGAAAAGGATACCTGTGAAAAGCCGCCGTCCGGGGTTATGGCAGTTAACTGTAACTGTCCCTGTG
[1]
  binding result: binds

B3: tin7 P2-disrupted promoter 78mer (dsDNA)
DNA 1: AATTCCGGTTGCGCCCCAATAACCACACTCAACCCATGATGTTTGTTAAGATAGTGGCGAATTGATGCAAAGGAGGTG
DNA 2: GATCCACCTCCTTTGCATCAATTCGCCACTATCTTAACAAACATCATGGGTTGAGTGTGTGGTTATTGGGGCGCAACCGGG
5' overhangs (EcoRI AATT / BamHI GATC)
  binding result: binds

B4: I promoter 92mer (dsDNA)
DNA 1: AATTCTTTCTTTCTCCAGTACTCAAATAGCATAACCCCAGATTTTCCCGCACCTCCCGCAAACTGACTGCTCACAAACCATGATGAGCAGCGG
DNA 2: GATCCCGCTGCTCATCATGGTTTGTGAGCAGTCAGTTTGCGGGAGGTGCGGGAAAATCTGGGGTTATGCTATTTGAGTACTGGAGAAAGAAAG
[1]
  binding result: binds

Reference: paper PMC4461284, “Different Modes of Transactivation of Bacteriophage Mu Late Promoters by Transcription Factor C”
